Consider one protein from publication PMC3903306 (Biochemistry, 2012).

This data set deals with the molecule itself. Briefly: cross-linking.

B1: IpgC (natural protein)
chain: MSLNITENESISTAVIDAINSGATLKDINAIPDDMMDDIYSYAYDFYNKGRIEEAEVFFRFLCIYDFYNVDYIMGLAAIYQIKEQFQQAADLYAVAFALGKNDYTPVFHTGQCQLRLKAPLKAKECFELVIQHSNDEKLKIKAQSYLDAIQDIKE
With B1, the stoichiometry N (commonly a count of units in the complex or per binding partner) was determined as 2.
